Test results as given in the RNAGym collection of RNA variant scans (doi:10.7554/elife.90254).

B1: LINE1-mini (parent)
chain: GGCAGAGCUCAACACAGCGUGGCAAAGUGGCUGUGGCUAGACUGCC

Variants of: B1
Test: self-cleavage, relative activity (ratio to wild type); higher = more cleavage; in vitro, sequencing; the parent is a self-cleaving ribozyme

| Variant | self-cleavage |
| --- | --- |
| A26G G40C | 0.08 |
| A26G G40U | 0.15 |
| A26G G40A | 0.14 |
| G27C C31U | 0.07 |
| G27C C31A | 0.15 |
| G27C C31G | 0.05 |
| A26G U43C | 0.05 |
| A26G U43A | 0.07 |
| A26G U43G | 0.03 |
| G27U G33U | 0.07 |
| G27U G33C | 0.07 |
| G27U G33A | 0.09 |
| A26G U32C | 0.18 |
| A26G U32A | 0.08 |
| A26G U32G | 0.18 |
| A26U G30U | 1.25 |
| A26U G30C | 1.31 |
| A26U G30A | 1.56 |
| G27A G44C | 0.65 |
| G27A G44A | 0.34 |
| G27A G44U | 0.3 |
| A25U U38A | 0.6 |
| A25U U38C | 0.31 |
| A25U U38G | 0.03 |

| Variant | self-cleavage |
| --- | --- |
| A26G A39C | 0.18 |
| A26G A39U | 0.5 |
| A26G A39G | 0.05 |
| A26G G27A | 0.99 |
| A26G G27U | 0.94 |
| A26G G27C | 1.15 |
| G27C A39G | 0.06 |
| G27C A39C | 0.11 |
| G27C A39U | 0.76 |
| A26C U43G | 0.12 |
| A26C U43A | 0.07 |
| A26C U43C | 0.25 |
| G27U G29C | 0.27 |
| G27U G29U | 1.03 |
| G27U G29A | 0.96 |
| A26C G36U | 0.07 |
| A26C G36A | 0.14 |
| A26C G36C | 0.11 |
| G27U C31A | 0.46 |
| G27U C31G | 0.21 |
| G27U C31U | 0.33 |
| A26G G35U | 0.16 |
| A26G G35A | 0.1 |
| A26G G35C | 0.1 |

| Variant | self-cleavage |
| --- | --- |
| A26C C31G | 0.06 |
| A26C C31A | 0.38 |
| A26C C31U | 0.17 |
| G27C U28G | 0.51 |
| G27C U28A | 0.54 |
| G27C U28C | 1.12 |
| A26U | 1.27 |
| A26C | 0.9 |
| A26G | 0.87 |
| G27C G29C | 0.37 |
| G27C G29A | 0.39 |
| G27C G29U | 0.51 |
| A26C A41C | 0.04 |
| A26C A41U | 0.72 |
| A26C A41G | 0.23 |
| G27A U28G | 0.4 |
| G27A U28C | 0.87 |
| G27A U28A | 0.77 |
| G27C G35A | 0.09 |
| G27C G35U | 0.07 |
| G27C G35C | 0.25 |
| G27A G35A | 0.19 |
| G27A G35U | 0.22 |
| G27A G35C | 0.12 |

| Variant | self-cleavage |
| --- | --- |
| A26U G33A | 0.09 |
| A26U G33U | 0.08 |
| A26U G33C | 0.06 |
| A26G G30C | 1.27 |
| A26G G30A | 2.6 |
| A26G G30U | 1.61 |
| A26C C42G | 0.04 |
| A26C C42U | 0.48 |
| A26C C42A | 0.16 |
| A26C G44C | 0.35 |
| A26C G44A | 0.87 |
| A26C G44U | 0.28 |
| G27C G33C | 0.04 |
| G27C G33U | 0.12 |
| G27C G33A | 0.13 |
| A26U U34G | 0.15 |
| A26U U34A | 0.07 |
| A26U U34C | 0.18 |
| A26G U34C | 0.08 |
| A26G U34G | 0.03 |
| A26G U34A | 0.04 |
| A26U U38A | 0.35 |
| A26U U38G | 0.03 |
| A26U U38C | 0.48 |

| Variant | self-cleavage |
| --- | --- |
| A26G G36C | 0.07 |
| A26G G36A | 0.28 |
| A26G G36U | 0.12 |
| A26U G27C | 0.66 |
| A26U G27U | 1.41 |
| A26U G27A | 0.8 |
| A26U G36U | 0.09 |
| A26U G36A | 0.23 |
| A26U G36C | 0.13 |
| G27A C31A | 1.09 |
| G27A C31U | 0.26 |
| G27A C31G | 0.2 |
| G27A U32C | 0.15 |
| G27A U32G | 0.21 |
| G27A U32A | 0.06 |
| G27U C42A | 0.17 |
| G27U C42U | 0.2 |
| G27U C42G | 0.04 |
| G27U A39C | 0.22 |
| G27U A39G | 0.22 |
| G27U A39U | 0.56 |
| A26C C46G | 0.75 |
| A26C C46A | 0.83 |
| A26C C46U | 1.46 |

| Variant | self-cleavage |
| --- | --- |
| A26G C42U | 0.13 |
| A26G C42A | 0.08 |
| A26G C42G | 0.05 |
| A26G U38G | 0.01 |
| A26G U38C | 0.44 |
| A26G U38A | 0.52 |
| G27A G30U | 1.61 |
| G27A G30A | 2.28 |
| G27A G30C | 1.53 |
| G27C G30A | 1.2 |
| G27C G30U | 1.72 |
| G27C G30C | 0.84 |
| A26C A39G | 0.05 |
| A26C A39U | 0.43 |
| A26C A39C | 0.09 |
| G27U G30A | 1.86 |
| G27U G30U | 1.53 |
| G27U G30C | 1.79 |
| A25U U43G | 0 |
| A25U U43A | 0.21 |
| A25U U43C | 0.1 |
| A26C C37G | 0.02 |
| A26C C37U | 0.07 |
| A26C C37A | 0.05 |

| Variant | self-cleavage |
| --- | --- |
| G27C U34A | 0.2 |
| G27C U34G | 0.2 |
| G27C U34C | 0.08 |
| G27C U43C | 0.07 |
| G27C U43A | 0.09 |
| A26U G40A | 0.17 |
| A26U G40C | 0.06 |
| A26U G40U | 0.13 |
| A26U U28G | 1.74 |
| A26U U28A | 0.88 |
| A26U U28C | 0.74 |
| G27A G29U | 0.5 |
| G27A G29C | 0.36 |
| G27A G29A | 0.65 |
| A26G A41U | 0.54 |
| A26G A41G | 0.2 |
| A26G A41C | 0.12 |
| A26G U28A | 1.25 |
| A26G U28G | 0.37 |
| A26G U28C | 1.18 |
| A26G C46G | 1.53 |
| A26G C46U | 0.58 |
| A26G C46A | 1.08 |
